{"source": "patent US20240400689A1", "about": "(ANTENGENE BIOLOGICS, published 2024)", "binders": {"B1": {"name": "2-A7-B10-A3 (antibody, V domains shown)", "VH": "QVQLQQSGAELVRPGVSVKISCKGSGYTFTDYAMHWVKQSHAKSLEWIGVINTNYVNTSYNQKFKGKATMTVDKSSSTAFMELARLTSEDSAIYYCARGGKYGNYVFFFAYWGQGTLVTVSA", "VL": "DIQMTQTTSSLSASLGDRVTISCRASQDISNYLNWYQQKPDGTVKLLIYYTSRLHSGVPSRFSGSGSGTDYSLTISNLEQEDIATYFCQQGNTLPYTFGGGTKLEIK", "notes": "mouse monoclonal antibody (hybridoma)"}, "B2": {"name": "5-D1-G6-D9 (antibody, V domains shown)", "VH": "EVQLQESGAELVKPGASVKLSCKTSGLTFSTNYISWLKQKPGQSLEWIAWIYGGNGGTSYNQRFTGKAQLTVDTSSSTAYMQFSSLTTEDSAIYYCTSHDYYGGPMDYWGQGTSVTVSS", "VL": "B1 VL with Y50F, G64A, G91T, Y96W", "notes": "as for B1"}, "B3": {"name": "27-E7-D8-C7 (antibody, V domains shown)", "VH": "EVQLQESGPELVRPGVSVKISCKGSGYTFTDYAMHWVKQSHAKSLEWIGVINTYSDNTNYNRKFKGKATMTVDKSSSTAYMELARLTSEDSAIYYCARGLLLRSQLGVYFDYWGQGTTLTVSS", "VL": "QIVLSQSPAILSASPGEKVTMTCRASSSVSYMHWYQQKPGSSPKPWIYATSNLASGVPARFSGSGSGTSYSLTISRVEAEDAATYYCQQWSSNPWTFGGGTKLEIK", "notes": "as for B1"}, "B4": {"name": "9-G2-H6-E4 (antibody, V domains shown)", "VH": "EVQLQQSGPDLVKPGASVKISCKASGYSFTGYFMNWVKQRHGKSLEWIGYINPNNGDTIYNQKFKGKATLTVDKSSSTAHMELLSLTSEDSAVYYCGRGGLPFGALDYWGQGTSVTVSS", "VL": "DIVMSQSPSSLAVSVGEKVNMSCKSSQSLLYSRNQKNYLAWNQQKPGQSPKLLIYWASARESGVPDRFTGSGSGTDFTLTISSVKAEDLAAYYCQQYHSYPYTFGGGTKLELK", "notes": "as for B1"}, "B5": {"name": "23-F10-G4-F11 (antibody, V domains shown)", "VH": "EVQLQESGPDLVRPGALVKLSCKSSGFNIKDYPIHWVRQRPEQGLEWIGWFDPDNGNVIYDPRFQGKASITADTSSNTAYLQLNSLTSEDTAVYYCSSPYGAMDYWGQGTSVTVSS", "VL": "QIVLTQSPEIMSASPGEKVTMTCSASSSVSYIHWYQQKSGTSPKRWIYDTSKLASGVPARFSGSGSGTSYSLTIRSMEAEDAATYYCQQGSSNPRTFGGGTKLEIK", "notes": "as for B1"}, "B6": {"name": "18-F9-D8-G7 (antibody, V domains shown)", "VH": "EVQLQQSGPELVRPGVSVKISCKGSGYTFTDYAMHWVKQSHAQSLEWIGIINTYSGDTNYNQKFKGKATMTVDKSSSTAYMGLARLTSEDSAIFYCARGGGNYPYWYFDVWGAGTTVTVSS", "VL": "ENVLTQSPAIMSASPGEKVTMTCRASSSVSSSYLHWYQQKSGDSPKLWIYSTSNLASGVPARFSGSGSGTSYSLTISSVEAEDAATYYCQQFSVYPLTFGAGTKLEIK", "notes": "as for B1"}, "B7": {"name": "25-D3-G4-C6 (antibody, V domains shown)", "VH": "EIQLQQTGPELVKPGASVKISCKASGYSFTDYIILWVKQSHGMSLEWIGNINPYYNSTYYNLKFKGKATLTVDKSSSTAYMQLDSLTSEDSAVYYCARDSFDWYFGVWGAGTTVTVSS", "VL": "DVVMTQTPLSLPVSLGDQASISCRSSQSLVHSNGNTYLHWYLQKPGQSPKLLIYKVSNRFSGVPDRFSGSGSGTDFTLKISRVETEDLGIYFCSQSTHVPPLTFGAGTKLELK", "notes": "as for B1"}, "B8": {"name": "6-D8-E7-A11 (antibody, V domains shown)", "VH": "QVHLQQPGAELVKPGASVKLSCKASGYTFTNYWMHWVKRRPGQGLEWIGMIHPNSGTTSFNEKFKSKATLTVDKSSSTAYMQLSSLTSEDSAVYYCAGYYGSSFSWFTYWGQGTLVTVSA", "VL": "QAVVTQESALTTSPGGTVILTCRSSTGAVTTSNFANWVQEKPDHLFTGLIGGTSNRAPGVPVRFSGSLIGDKAALTITGAQTEDDAMYFCALWYSTHYVFGGGTKVTVL", "notes": "as for B1"}, "B9": {"name": "16-C6-F7-F5 (antibody, V domains shown)", "VH": "QIQLVQSGPEVKKPGETVKISCKASGYTFTKYGINWVKQAPGEGLKWMGWIWTYTGKPTYGDDFKGRFAFSLETSASTAYLQISDLKIEDMATYFCARDDGYYYTMNYWGQGTSVTVSS", "VL": "DIVMTQTPLSLPVSLGDQASISCRSSQSLLHTNGDTYLHWYLQKAGQPPKLLIYKVSNRFSGVPDRFSGSGSGTDFTLKISRVEAEDLGVYFCSQSTHIPWTFGGGTKLEIK", "notes": "as for B1"}, "B10": {"name": "26-D2-D6-B12 (antibody, V domains shown)", "VH": "QIQLVQSGPELKKPGETVKISCKASGYIFRNYGMNWVKQAPGKGLKWMGWINSYTGKPTYVDDFKGRFAFSLETSASTAYLQINNLKNEDMATYFCARDDGYWYTMDYWGQGTSVTVSS", "VL": "B9 VL with I2V, L30V, T32S, D35H, A45P, P48S, I99V", "notes": "as for B1"}, "B11": {"name": "22-E11-C3-F2 (antibody, V domains shown)", "VH": "QIQLVQSGPELKRPGETVKISCKASGYSFTNYGMNWVKQAPGKGLKWMGWINPYTGEPTYADDFKGRFAMSLETSASAAYLQINNLKNEDMATYFCGRDDGYHYTMNYWGQGTSVTVSS", "VL": "B9 VL with I2V, T7P, L30I, T32S, A45P, P48S, N58I, H98Y, I99V", "notes": "as for B1"}, "B12": {"name": "11-C12-F4-F6 (antibody, V domains shown)", "VH": "B10 VH with I28T, Y32F, A40G, S53P, K57E, D62G", "VL": "B9 VL with I2V, L9P, S22P, L30V, T32S, D35I, A45P, P48S, I99V", "notes": "as for B1"}, "B13": {"name": "3-F2-E7-F9 (antibody, V domains shown)", "VH": "QVQLQQSGPELVRPGVSVKISCKGSGYTFTDYTMHWVKESHAKSLEWIGVISTYYGNTNYNQKFKGKATLTVDKSSSTAYMELAGLTSEDSAIYYCARASYGSGYGPYYWYFDVWGAGTTVTVSS", "VL": "DIQMTQSPASLFASVGETVTITCRASEKIYSYLAWYFQKQGKSPQFLVYNANALAEGVPSRFSGSGSGTQFSLKINSLQPEDFGTYYCQHHYGTPVTFGAGSKLELK", "notes": "as for B1"}, "B14": {"name": "20-A2-D10-G8 (antibody, V domains shown)", "VH": "B13 VH with K43Q, K63N", "VL": "B13 VL with N76K, T94S", "notes": "as for B1"}, "B15": {"name": "24-C10-F9-G7 (antibody, V domains shown)", "VH": "B13 VH with Q1E, Q6E, Y32H, K43Q, K63N", "VL": "B13 VL", "notes": "as for B1"}}, "note": "Numbering of substitutions follows the chain as printed."}
{"molecular_target": "T1, Macaca fascicularis CD276 (Macaca fascicularis)", "T1 construct": "whole, on cells; also called cynomolgus monkey CD276; cynoCD276", "test": "FACS on CHO-S-cynoCD276 cells", "procedure": "(§1) Screening & Expansion—The subcloning plates were screened by protein or cell-based Elisa, and the subclones with good binding ability were expanded to 24-wells for confirmation tests. The specificity and cross-reactivity of these subclones were confirmed with FACS analysis. Briefly, parental CHO-S cells, CHO-S-hCD276, CHO-S cell line stably over-expressing Macaca fascicularis CD276, CHO-K1 S, cell line stably over-expressing mouse CD276 were incubated with antibodies produced by each subclone respectively. Fluorescent dye-conjugated secondary antibody was used to detect the binding of the primary antibody with the cells. Median fluorescence intensity was measured by FACS analysis."}
{"binder": "B1", "FACS MFI": 56000}
{"binder": "B2", "FACS MFI": 62200}
{"binder": "B3", "FACS MFI": 87900}
{"binder": "B4", "FACS MFI": 5400}
{"binder": "B5", "FACS MFI": 36700}
{"binder": "B6", "FACS MFI": 83500}
{"binder": "B7", "FACS MFI": 5390}
{"binder": "B8", "FACS MFI": 101000}
{"binder": "B9", "FACS MFI": 19500}
{"binder": "B10", "FACS MFI": 63100}
{"binder": "B11", "FACS MFI": 56500}
{"binder": "B12", "FACS MFI": 5140}
{"binder": "B13", "FACS MFI": 35700}
{"binder": "B14", "FACS MFI": 9020}
{"binder": "B15", "FACS MFI": 15200}
{"molecular_target": "T2, human CD276 protein (human, UniProt Q5ZPR3 29-534)", "T2 construct": "whole, on cells; for SKOV3 and the other cancer lines the protein is the cells' own; also called B7-H3; B7H3", "T2 sequence (looked up)": "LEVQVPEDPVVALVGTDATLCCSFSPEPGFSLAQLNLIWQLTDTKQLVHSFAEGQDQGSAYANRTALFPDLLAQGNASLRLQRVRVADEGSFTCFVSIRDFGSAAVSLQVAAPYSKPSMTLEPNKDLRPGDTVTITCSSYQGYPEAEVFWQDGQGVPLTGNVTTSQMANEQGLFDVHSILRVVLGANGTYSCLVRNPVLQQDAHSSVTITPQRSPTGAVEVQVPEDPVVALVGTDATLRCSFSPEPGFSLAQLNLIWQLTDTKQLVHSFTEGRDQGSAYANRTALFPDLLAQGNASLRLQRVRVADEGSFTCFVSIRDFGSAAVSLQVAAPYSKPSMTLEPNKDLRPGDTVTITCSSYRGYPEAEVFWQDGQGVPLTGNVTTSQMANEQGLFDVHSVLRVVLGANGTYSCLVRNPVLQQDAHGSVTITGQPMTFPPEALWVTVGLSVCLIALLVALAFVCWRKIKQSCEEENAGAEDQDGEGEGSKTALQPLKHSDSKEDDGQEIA", "test": "FACS on CHO-S-hCD276 cells", "procedure": "as §1"}
{"binder": "B1", "FACS MFI": 58900}
{"binder": "B2", "FACS MFI": 45300}
{"binder": "B3", "FACS MFI": 94700}
{"binder": "B4", "FACS MFI": 49600}
{"binder": "B5", "FACS MFI": 127000}
{"binder": "B6", "FACS MFI": 127000}
{"binder": "B7", "FACS MFI": 5940}
{"binder": "B8", "FACS MFI": 37900}
{"binder": "B9", "FACS MFI": 141000}
{"binder": "B10", "FACS MFI": 47500}
{"binder": "B11", "FACS MFI": 74300}
{"binder": "B12", "FACS MFI": 41900}
{"binder": "B13", "FACS MFI": 52300}
{"binder": "B14", "FACS MFI": 77100}
{"binder": "B15", "FACS MFI": 85100}
{"molecular_target": "T3, mouse CD276 protein (mouse, UniProt Q8VE98 29-316)", "T3 construct": "whole, on cells; also called mCD276; CHO-S-mCD276", "T3 sequence (looked up)": "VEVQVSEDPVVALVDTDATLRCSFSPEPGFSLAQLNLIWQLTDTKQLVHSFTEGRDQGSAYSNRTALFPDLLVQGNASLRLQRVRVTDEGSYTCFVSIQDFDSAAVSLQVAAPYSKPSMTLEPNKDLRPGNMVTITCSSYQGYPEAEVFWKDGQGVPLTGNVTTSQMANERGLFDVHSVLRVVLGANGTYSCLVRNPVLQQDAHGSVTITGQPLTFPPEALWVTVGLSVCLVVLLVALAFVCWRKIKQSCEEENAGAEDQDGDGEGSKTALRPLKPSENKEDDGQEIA", "test": "FACS on CHO-S-mCD276 cells", "procedure": "as §1"}
{"binder": "B1", "FACS MFI": 2040}
{"binder": "B2", "FACS MFI": 1530}
{"binder": "B3", "FACS MFI": 1590}
{"binder": "B4", "FACS MFI": 27600}
{"binder": "B5", "FACS MFI": 1300}
{"binder": "B6", "FACS MFI": 20600}
{"binder": "B7", "FACS MFI": 1370}
{"binder": "B8", "FACS MFI": 92600}
{"binder": "B9", "FACS MFI": 1830}
{"binder": "B10", "FACS MFI": 1310}
{"binder": "B11", "FACS MFI": 1670}
{"binder": "B12", "FACS MFI": 1340}
{"binder": "B13", "FACS MFI": 1140}
{"binder": "B14", "FACS MFI": 1260}
{"binder": "B15", "FACS MFI": 1180}
